# US20250352667A1
# Experiments:
# [1] = molecular target: KEAP1 (wild-type full-length), His-tagged (human) (UniProt Q14145); experiment: AlphaScreen; 38.4 nM FLAG-NRF2, 150 nM His-KEAP1; Repeat 2 (same value as in Table 23)
# [2] = molecular target: KEAP1 (wild-type full-length), His-tagged (human) (UniProt Q14145); experiment: AlphaScreen; 9.6 nM FLAG-NRF2, 150 nM His-KEAP1; Repeat 2 (same value as in Table 23)
# [3] = molecular target: KEAP1 (wild-type full-length), His-tagged (human) (UniProt Q14145); experiment: AlphaScreen; 19.2 nM FLAG-NRF2, 150 nM His-KEAP1; Repeat 1 (same value as in Table 23)
# [4] = molecular target: KEAP1 (wild-type full-length), His-tagged (human) (UniProt Q14145); experiment: AlphaScreen; standard deviation of three conditions; against wild-type NRF2 isoform 2
# [5] = molecular target: KEAP1 (wild-type full-length), His-tagged (human) (UniProt Q14145); experiment: AlphaScreen, all variants on one plate; optimal condition (19.2 nM NRF2), KEAP1 150 nM; relative to NRF2 (WT) isoform 2
# [6] = molecular target: KEAP1 (wild-type full-length), His-tagged (human) (UniProt Q14145); experiment: AlphaScreen; 38.4 nM FLAG-NRF2, 150 nM His-KEAP1; Repeat 2 (same value as in Table 22)
# [7] = molecular target: KEAP1 (wild-type full-length), His-tagged (human) (UniProt Q14145); experiment: AlphaScreen; 9.6 nM FLAG-NRF2, 150 nM His-KEAP1; Repeat 1 (same value as in Table 22)
# [8] = molecular target: KEAP1 (wild-type full-length), His-tagged (human) (UniProt Q14145); experiment: AlphaScreen; 19.2 nM FLAG-NRF2, 150 nM His-KEAP1; Repeat 2 (same value as in Table 22)
# [9] = molecular target: KEAP1 (wild-type full-length), His-tagged (human) (UniProt Q14145); experiment: AlphaScreen; 19.2 nM FLAG-NRF2, 150 nM His-KEAP1; Repeat 1 (same value as in Table 22)
# [10] = molecular target: KEAP1 (wild-type full-length), His-tagged (human) (UniProt Q14145); experiment: AlphaScreen; 9.6 nM FLAG-NRF2, 150 nM His-KEAP1; Repeat 2 (same value as in Table 22)
# [11] = molecular target: KEAP1 (wild-type full-length), His-tagged (human) (UniProt Q14145); experiment: AlphaScreen; 19.2 nM FLAG-NRF2, 150 nM His-KEAP1 (same value as in Table 22)
# [12] = molecular target: KEAP1 (wild-type full-length), His-tagged (human) (UniProt Q14145); experiment: AlphaScreen; 38.4 nM FLAG-NRF2, 150 nM His-KEAP1 (same value as in Table 22)
# Chain of KEAP1 (wild-type full-length), His-tagged (human) (Q14145 2-624 limits assumed, form in doubt): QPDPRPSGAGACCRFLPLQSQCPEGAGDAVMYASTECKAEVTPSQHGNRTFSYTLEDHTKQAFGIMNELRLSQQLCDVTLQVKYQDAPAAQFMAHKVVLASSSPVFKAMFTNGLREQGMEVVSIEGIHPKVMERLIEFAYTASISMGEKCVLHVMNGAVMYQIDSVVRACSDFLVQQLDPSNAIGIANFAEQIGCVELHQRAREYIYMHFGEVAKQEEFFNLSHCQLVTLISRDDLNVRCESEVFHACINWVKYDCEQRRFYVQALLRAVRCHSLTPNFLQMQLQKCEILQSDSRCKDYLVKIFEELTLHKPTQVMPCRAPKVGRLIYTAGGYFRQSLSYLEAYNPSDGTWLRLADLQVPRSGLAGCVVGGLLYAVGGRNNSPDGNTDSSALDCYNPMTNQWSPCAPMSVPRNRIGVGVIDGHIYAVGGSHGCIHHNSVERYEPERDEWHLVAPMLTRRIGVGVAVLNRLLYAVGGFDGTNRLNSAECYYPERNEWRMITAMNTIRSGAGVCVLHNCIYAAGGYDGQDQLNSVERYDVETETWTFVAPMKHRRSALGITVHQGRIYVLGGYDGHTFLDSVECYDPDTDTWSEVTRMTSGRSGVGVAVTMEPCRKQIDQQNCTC
A-counts [1] [A-counts],A-counts [2] [A-counts],A-counts [3] [A-counts],Reported Value (standard deviation of reduction in binding) [4] [%],% Disruption in Binding [5] [%],A-counts [6] [A-counts],A-counts [7] [A-counts],A-counts [8] [A-counts],A-counts [9] [A-counts],A-counts [10] [A-counts],S/N [11],S/N [12],Substance
1960,1520,1700,10.2,59.7,–,–,–,–,–,–,–,"NRF2 isoform 2 (E63G/E66G full-length), FLAG-tagged"
–,–,–,–,–,3460,2310,3260,3480,2590,4.2,3.4,"NRF2 isoform 2 (wild-type full-length), FLAG-tagged"
